Measurements published in patent US20250304700A1, “ANTI-BLOOD DENDRITIC CELL ANTIGEN 2 ANTIBODIES AND USES THEREOF” (Biogen MA Inc., priority 2012, published 2025).
Substitutions are numbered along the chain they refer to.

T1: surface human BDCA2 (Homo sapiens, UniProt Q8WTT0)
T1 construct: stably transfected DG44 CHO cells co-expressing full-length BDCA2 and FcεRIγcDNAs (human or cynomolgus monkey); expressed in transfected cells
T1 sequence (Q8WTT0 1-213): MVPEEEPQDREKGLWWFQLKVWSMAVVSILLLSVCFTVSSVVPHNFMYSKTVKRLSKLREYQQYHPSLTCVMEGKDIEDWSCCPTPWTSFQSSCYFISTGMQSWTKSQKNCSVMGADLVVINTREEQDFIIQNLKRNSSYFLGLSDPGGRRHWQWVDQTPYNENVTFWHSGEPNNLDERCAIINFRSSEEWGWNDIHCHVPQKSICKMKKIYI
T1 sequence (P30273 19-86 partner): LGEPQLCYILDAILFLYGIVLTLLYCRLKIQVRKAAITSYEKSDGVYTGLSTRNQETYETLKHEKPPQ

T2: human BDCA2 ectodomain (Homo sapiens, UniProt Q8WTT0)
T2 construct: huBDCA2 ectodomain: residues 257-425 above (underlined); murine IgG2a Fc (with G4S linker) (N, cleaved yes); made in house
T2 sequence (Q8WTT0 45-213): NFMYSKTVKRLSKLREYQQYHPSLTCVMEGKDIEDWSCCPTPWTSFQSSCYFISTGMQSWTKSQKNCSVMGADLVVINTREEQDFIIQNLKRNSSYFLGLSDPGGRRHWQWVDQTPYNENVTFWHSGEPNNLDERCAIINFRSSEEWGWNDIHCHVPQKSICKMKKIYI

B1: H5/L1: hu24F4 variant, heavy chain version H5 (SEQ ID NO: 49), light chain version L1 (antibody, V domains shown)
VH: DVQLVQSGGGLVKPGGSLRLSCAASGFTFSTYTMSWVRQAPGKGLEWVATISPGDSFGYYYPDSVQGRFTISRDNAKNSLYLQMNRLRAEDTAVYYCTRDIYYNYGAWFAYWGRGTLVTVSS
VL: DIQLTQSPSSLSASVGDRVTITCKASQSVDYDGDSYMNWYQQKPGKAPKLLIYAASTLESGVPSRFSGSGSGTDFTLTISSLQPEDFATYYCQQSNEDPRTFGQGTKVEIK
B2: H1/L1: hu24F4 variant, heavy chain version H1 (SEQ ID NO: 42), light chain version L1 (antibody, V domains shown)
VH: EVQLVESGGGLVKPGGSLRLSCAASGFTFSTYTMSWVRQAPGKGLEWVSTISPGDSFGYYPDSVKGRFTISRDNAKNSLYLQMNSLRAEDTAVYYCARDIYYNYGAWFAYWGQGTLVTVSS
VL: B1 VL
B3: H3/L1: hu24F4 variant, heavy chain version H3 (SEQ ID NO: 46), light chain version L1 (antibody, V domains shown)
VH: B1 VH with D1E, Q6E, A49S, R86S, T98A, R114Q
VL: B1 VL
B4: H6/L0: hu24F4 variant, heavy chain version H6 (SEQ ID NO: 52), light chain version L0 (SEQ ID NO: 54) (antibody, V domains shown)
VH: B1 VH with Q6E, P53G, D55N, S56N, F57Y, Y60S, Q66K, R86S, R114Q
VL: B1 VL with D1A
B5: H0/L1: hu24F4 variant, heavy chain version H0 (SEQ ID NO: 40), light chain version L1 (SEQ ID NO: 56) (antibody, V domains shown)
VH: B2 VH with T50A, P53G, G54S, D55G, S56G, F57S, G58T, P61A
VL: B1 VL
B6: H2/L1: hu24F4 variant, heavy chain version H2 (SEQ ID NO: 44), light chain version L1 (antibody, V domains shown)
VH: EVQLVESGGGLVKPGGSLRLSCAASGFTFSTYTMSWVRQAPGKGLEWVSTISPGDSSTIYYADSVKGRFTISRDNAKNSLYLQMNSLRAEDTAVYYCARDIYYNYGAWFAYWGQGTLVTVSS
VL: B1 VL

These molecules were tested against T1, surface human BDCA2 (assay: Direct binding dilution titration FACS on surface human BDCA2). Conditions: transfected cells co-expressing BDCA2 and FcεRIγ.
Procedure: Expression vectors (ch24F4 heavy chain vectors pYL670 or pYL672 and ch24F4 light chain vector pYL671) were co-transfected into 293-EBNA cells and transfected cells were tested for antibody secretion and specificity (empty vector- and a molecularly cloned irrelevant mAb vector-transfected cells served as controls). […] Direct FACS binding to surface human BDCA2 confirmed the specificity of ch24F4. The EC50 binding of both variants of ch24F4 was equivalent to that of the murine 24F4 mAb by direct binding to surface expressed human BDCA2 by dilution titration FACS assay. Stable CHO cell lines secreting ch24F4-huIgG1, kappa mAb and agly ch24F4-huIgG4/G1 hybrid kappa mAb were produced by co-transfection with pYL672/pYL671 and pYL670/pYL671, respectively.
Site-directed mutagenesis was performed using Agilent's QuikChange II mutagenesis kit following the manufacturer's recommended protocol. The C95S variant was constructed using the mutagenic primer 5′ GCAACCTATTACTGTCAACAAAGTAATGAGGATCCTCGGAC 3′ (SEQ ID NO: 38) and its reverse complement, which introduced a new HincII site, producing plasmid pEAG2678. The C95T variant was constructed using the mutagenic primer 5′ CAACCTATTACTGTCAGCAAACTAATGAAGATCCTCGGACGTTCG 3′ (SEQ ID NO: 39) and its reverse complement, which removed a BamHI site, producing plasmid pEAG2679. […]

direct binding to surface human BDCA2, in words | Molecule
“best” variants | B1

Each molecule was assayed against T2, human BDCA2 ectodomain (assay: Octet binding of mAbs on anti-human Fc tips to monomeric huBDCA2). Conditions: Example 5, conditioned medium, hu24F4 variants.
Procedure: Site-directed mutagenesis was performed using Agilent's QuikChange II mutagenesis kit following the manufacturer's recommended protocol. The C95S variant was constructed using the mutagenic primer 5′ GCAACCTATTACTGTCAACAAAGTAATGAGGATCCTCGGAC 3′ (SEQ ID NO: 38) and its reverse complement, which introduced a new HincII site, producing plasmid pEAG2678. The C95T variant was constructed using the mutagenic primer 5′ CAACCTATTACTGTCAGCAAACTAATGAAGATCCTCGGACGTTCG 3′ (SEQ ID NO: 39) and its reverse complement, which removed a BamHI site, producing plasmid pEAG2679. Mutated plasmids were identified by screening for the introduced restriction site changes. The full-length light chain cDNA sequences in the resultant plasmids were confirmed by DNA sequencing. Wildtype ch24F4 and the C95S and C95T variant mAbs were expressed transiently in 293E cells by co-transfection of pYL672 and pYL671, pEAG2678 or pEAG2679. Conditioned medium was harvested at 2 days post-transfection. Titers (assayed by Octet on anti-human Fc tips) of both variants were similar to that of wildtype ch24F4, and Western blots of nonreducing SDS-PAGE indicated no gross aggregation or obvious clipping relative to wildtype ch24F4 mAb. […] Conditioned medium containing ch24F4 and the C95 variant mAbs was assayed by Octet for binding to human BDCA2 ectodomain. Antibodies from conditioned medium from transiently transfected cells were bound to anti-human Fc tips, then monomeric huBDCA2 was flowed over the Octet tips, to examine binding and dissociation.
Conditioned medium containing ch24F4 and all hu24F4 variant mAbs was assayed by Octet for binding to human BDCA2 ectodomain. The monomeric huBDCA2 ectodomain was prepared by proteolytic cleavage from the purified muIgG2a Fc-huBDCA2 fusion protein (relevant plasmid: pEAG2423). Antibodies from conditioned medium from transiently transfected cells were bound to anti-human Fc tips, and then monomeric huBDCA2 was flowed over the Octet tips, to examine binding and dissociation.
To explore the possibility of enhancing hu24F4 affinity by substitution at the position of the 24F4 version L1 CDR L3 unpaired cysteine (C95S in hu24F4 light chain expression vector pYL740), a number of version L1 variants were constructed by site-directed mutagenesis. Backmutation to the unpaired cysteine, i.e., S95C, was constructed by site-directed mutagenesis producing plasmid pYL749. Variants S95T, S95A, and S95V were constructed by site-directed mutagenesis producing plasmids pYL750, pYL751, and pYL752, respectively. The full-length light chain cDNA sequences in the resultant plasmids were confirmed by DNA sequencing. C95 variant hu24F4 mAbs were expressed transiently in 293E cells by co-transfection of hu24F4 H4 heavy chain pYL746 or hu24F4 H5 heavy chain pYL747 with hu24F4 L1 variant light chains C95S pYL740, S95C pYL749, S95T pYL750, S95A pYL751 or S95V pYL752 plasmids. Conditioned medium was harvested at 2 days post-transfection. Titers (assayed by Octet on anti-human Fc tips) of all variants were similar, and Western blots of nonreducing SDS-PAGE indicated no gross aggregation or obvious clipping. Conditioned medium containing the C95 variant mAbs was assayed by Octet for binding to human BDCA2 ectodomain. Antibodies from conditioned medium from transiently transfected cells were bound to anti-human Fc tips, then monomeric huBDCA2 was flowed over the Octet tips, to examine binding and dissociation. C95A variants had the slowest off-rates.

kdis | kon | Molecule
5.03e-06 s⁻¹ | 100000 M⁻¹ s⁻¹ | B2
0.00586 s⁻¹ | 452000 M⁻¹ s⁻¹ | B3
0.00137 s⁻¹ | 273000 M⁻¹ s⁻¹ | B4
9.5e-06 s⁻¹ | 100000 M⁻¹ s⁻¹ | B5
3.35e-06 s⁻¹ | 100000 M⁻¹ s⁻¹ | B6

The molecules below were run on CD62L on the surface of human pDCs (assay: CD62L surface expression on pDCs by flow cytometry). Conditions: PBMC pre-treated 30 minutes, then 10 μg/mL BIIB059 for 1 hour.
Type: cell-based
Procedure: The MFI of CD62L was determined by gating on pDCs as defined by CD14−, CD20−, HLA-DR+ and CD123+.
Metalloproteinase are known to induce CD62L shedding from the surface of immune cells. […] The surface expression of CD62L was assayed by flow cytometry. GM6001 inhibited the BIIB059-mediated down-modulation CD62L in a dose dependent manner (FIG. 45).

Molecule | BIIB059-mediated down-modulation of CD62L
CNC(=O)[C@H](Cc1c[nH]c2ccccc12)NC(=O)[C@@H](CC(=O)NO)CC(C)C [GM6001, reference compound] | inhibited
